Assay results taken from publication PMC10114367 (Fluids and Barriers of the CNS, 2023).
Entries after “also recorded” stand apart in the source; their conditions may differ.

Assays:
[1] = Distribution of ^125I-insulin and ^125I-S961 following ICV delivery; assay type: in vivo, CD-1 mice
Procedure: The scalp was reflected in anesthetized mice and a hole was drilled 1 mm lateral and 0.2 mm posterior to the Bregma. […] Brains were removed between 2 and 60 min later and dissected into regions. […] Weighed brain regions and serum were counted in a gamma counter (Wizard2, Perkin Elmer, Waltham, MA, USA). […] The %Inj was divided by the weight of the region (g/region) or the volume serum measured (ul/serum) to calculate the %Inj/g and %Inj/ml. Pilot studies were performed to identify ventricular injection using this method.

[2] = tested on: insulin transport across the blood-brain barrier (BBB); assay: ^125I-insulin blood-to-brain BBB pharmacokinetics by multiple-time regression analysis (MTRA) after CNS treatment; assay type: in vivo, CD-1 mice; conditions: for Ki of ^125I-insulin (unidirectional influx blood to brain) / Vi of ^125I-insulin (reversible vascular binding): male mice; for Ki of ^125I-insulin (unidirectional influx blood to brain): MTRA slope ± SE; for Vi of ^125I-insulin (reversible vascular binding): MTRA y-intercept
Procedure: For all radioactive studies, the right jugular vein and left carotid artery were exposed. […] The whole brain, olfactory bulb, and in some cases the hypothalamus were removed and weighed. […] Each mouse yielded a single serum sample and time-matched brain sample. Exposure time was calculated from the formula:1 [drawing 1] , where Cp is the level of radioactivity (CPM) in serum at time (t). […] Vi (μl/g) is the level of solute in rapid, reversible equilibrium between plasma and brain. […] The linear portion of the relation between the delta B/S ratio versus exposure time is represented in the figures and was used to calculate the Ki (μl/g-min) with its standard error term, and the y-intercept determined representing the Vi(μl/g). Regression analyses and other statistical analyses were performed with Prism 9.0 (GraphPad Softward Inc., San Diego, CA, USA). For all MTRA pharmacokinetic studies, the slope of the linear regression lines (Ki), reported with their correlation coefficients (r), and y-intercepts (Vi) were compared statistically using Prism equivalent to an analysis of covariance (ANCOVA). For these studies, the individual data points are presented in the representative Figures. For the regional studies, the regional B/S levels for each sex were reported with their standard error terms and analyzed by a two-way analysis of variance (ANOVA) followed by Tukey's post hoc test when appropriate.

[3] = tested on: blood-brain barrier (BBB); assay: Whole brain vascular space / BBB permeability to ^99mTc-albumin following CNS treatment; assay type: in vivo, CD-1 mice
Procedure: For all radioactive studies, the right jugular vein and left carotid artery were exposed. […] Mice were injected IV with the radioactive tracer 10 min later. […] The whole brain, olfactory bulb, and in some cases the hypothalamus were removed and weighed. […] Each mouse yielded a single serum sample and time-matched brain sample. Exposure time was calculated from the formula:1 [drawing 1] , where Am is the level of radioactivity (CPM) per gram of brain tissue at time (t), Cpt is the level of radioactivity (CPM) per ml arterial serum at time t, Ki (μl/g-min) is the steady-state rate of unidirectional solute influx from blood to brain. Vi (μl/g) is the level of solute in rapid, reversible equilibrium between plasma and brain. Subtracting ratios for ^99mTc-albumin from the corresponding ^125I-insulin brain/serum (B/S) ratio yielded a delta B/S ratio, which corrects the B/S ratio for ^125I-insulin for vascular space. The linear portion of the relation between the delta B/S ratio versus exposure time is represented in the figures and was used to calculate the Ki (μl/g-min) with its standard error term, and the y-intercept determined representing the Vi(μl/g).

[4] = tested on: regional brain vascular space; assay: Regional ^99mTc-albumin brain/serum ratios (vascular space) following CNS treatment; assay type: in vivo, CD-1 mice; conditions: olfactory bulb; male; 30 min after 1 µg IN insulin
Procedure: For the regional studies, brain and serum were collected at a single time point post central nervous system (CNS) manipulation. For IN studies following ICV delivery, S961 (1 µg in PB) or vehicle was given ICV, and IN ^125I-insulin was immediately administered. 30 min later, brain and serum were collected. […] For IV studies following ICV delivery, S961 (1 µg in PB) or vehicle was given ICV and 10 min later, IV ^125I-insulin and ^99mTc-albumin was injected. For the IV studies, brain and serum were collected 5 min later. Olfactory bulb (OB) and the whole brain dissected into 10 regions were weighed: striatum (St), frontal cortex (FC), hypothalamus (Hy), hippocampus (HC), thalamus (Th), parietal cortex (PC), occipital cortex (OC), cerebellum (CB), midbrain (MB), and pons-medulla (PM). Whole brain (WB) is the summed value from individual regions. The levels of radioactivity in serum (50 µl) and brain samples were counted in a gamma counter (Wizard2, Perkin Elmer, Waltham, MA, USA). %Inj/g for IN distribution and Delta B/S ratios following IV administration were calculated as described above. ^99mTc-albumin B/S ratios are also presented to identify changes in regional vascular space following CNS manipulation.

[5] = Immunoactive serum insulin measurement (MSD mouse insulin kit) after ICV treatment; assay type: in vivo, CD-1 mice; conditions: male, kit cross reacts with human insulin
Procedure: Whole blood was centrifuged at 3,200xg for 10 min. Serum was collected, aliquoted, and frozen at -80 °C until measurement. […] This kit cross reacts with human insulin.

[6] = biological target: insulin transport across the blood-brain barrier (BBB); conditions: per mouse; cited from earlier work
Procedure: The average blood volume of a mouse is about 77–80 ml/kg. Given that our male CD-1 mice are approximately 30 g at the time of study, these mice have around 2.4 ml of blood. […] Therefore, while th ...

[7] = cited from earlier work
[8] = olfactory bulb, 1 µg ICV insulin 10 min before IV ^125I-insulin
[9] = olfactory bulb, 1 µg IN insulin 30 min before IV ^125I-insulin
[10] = whole brain, 1 µg ICV insulin 10 min before IV ^125I-insulin

With human insulin the “expected amount per gram of brain tissue after 1 µg ICV administration” value ([1]; calculated from %Inj/g at 10 min and 1 µg ICV dose) was “approximately 605 ng per gram of brain tissue”, the “level in whole brain after ICV delivery” value ([1]; radiolabelled tracer ICV, whole brain at 10 min) was “approximately 60.5 %Inj/g” and the “Ki of ^125I-insulin (unidirectional influx blood to brain)” value (from here on “Ki of ^125I-insulin”) ([2]; hypothalamus, 1 µg IN insulin 30 min before IV ^125I-insulin, regression ns) was 0.57 ± 0.88 µL/g/min. For the same substance, the “slowing of ^125I-insulin blood-to-brain transport rate vs vehicle” value ([2]; hypothalamus, male, 1 µg IN insulin, 30 min) was “about 85%”, the “Ki of ^125I-insulin” value [2, 8] was ~ 0.3 µl/g-min and the “Ki of ^125I-insulin” value ([2]; olfactory bulb, 1 µg ICV insulin 10 min before IV ^125I-insulin, listed as Insulin) was 0.35 ± 0.16 µL/g/min. The “Vi of ^125I-insulin (reversible vascular binding)” value (from here on “Vi of ^125I-insulin”) [2, 8] was 14.6 ± 2.2 µL/g, the “Ki of ^125I-insulin” value [2, 9] was 2.74 ± 0.52 µL/g/min and the “Vi of ^125I-insulin” value [2, 9] was 9.7 ± 3.9 µL/g. For the same substance, the “decrease of ^125I-insulin blood-to-brain transport rate vs vehicle” value ([2]; olfactory bulb, male, 1 µg ICV insulin, 10 min) was “about 82%”, the “Ki of ^125I-insulin” value [2, 10] was ~ 0.3 µl/g-min and the “Ki of ^125I-insulin” value ([2]; whole brain, 1 µg ICV insulin 10 min before IV ^125I-insulin, listed as Insulin) was 0.30 ± 0.11 µL/g/min. The “Vi of ^125I-insulin” value [2, 10] was 7.9 ± 1.5 µL/g, the “effect on whole brain vascular space or BBB leakage measured with ^99mTc-albumin” value ([3]; 1 µg ICV or IN insulin (males), 1 µg ICV S961 (males, females)) was “no effect” and the “increase in ^99mTc-albumin vs vehicle” value [4] was 43%. For the same substance, the “change in serum insulin level vs vehicle” value ([5]; 30 min after 1 µg ICV human insulin) was “nearly doubled; also recorded: two-fold increase”, the “rise in serum insulin level” value ([5]; 30 min after 1 µg human insulin ICV) was 5 ng/mL and the “IV bolus of unlabeled insulin necessary to reduce the ^125I-insulin BBB Ki by 50%” value [6] was 121 ng. For the same substance, the “insulin present in hypothalamus after IN delivery” value ([7]; hypothalamus, 30 min after IN insulin delivery, male CD-1 mice) was 0.23 %Inj/g.

For “^125I-insulin: human insulin radioactively labeled with ^125I; tracer for BBB transport”, the “amount of ^125I-insulin entering the blood following ICV delivery” value ([1]; mouse, in vivo) was less than 3 %Inj/ml, the “time by which tracer is distributed throughout the brain after ICV delivery” value ([1]; mouse, in vivo) was no more than 5 min and the “time to appearance in serum after ICV injection” value ([1]; mouse, in vivo) was no more than 5 min. The “^125I-insulin present in whole brain after IN delivery” value ([7]; mouse, in vivo) was “approximately 0.13 %Inj/g” and the “time of peak brain level after IN administration” value ([7]; mouse, in vivo) was “about 30 min”.

In the case of “^99mTc-albumin: bovine serum albumin labeled with Technetium-99m; marker for vascular space”, the “^99mTc-albumin whole brain B/S ratio” value ([3]; mouse, in vivo, iv) was 8 to 12 µL/g.
